Measurements as given in the supplement of paper PMC10899765.

Assays:
Conditions in all cases: 20 nM; 72 h
[1] = tested on: MCF10A; assay: percent viability (nuclei count relative to siNT); higher = more viable cells
Protocol: (§1)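 After 72 h, cells were fixed and stained with Hoechst and anti-fibrillarin, and nucleoli per nucleus were counted with CellProfiler. Values are plate-adjusted percent effect for the one-nucleolus and 5+ nucleoli phenotypes, normalised to siNT (0%) and to the positive controls siNOL11 or siKIF11 (100%), as the mean of biological triplicates. Percent viability is the nuclei count relative to siNT.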

[2] = tested on: MCF10A; assay: 5+ nucleoli phenotype percent effect (relative to siNT 0% and siKIF11 100%); higher = more cells with five or more nucleoli
Protocol: as §1

[3] = tested on: MCF10A; assay: one-nucleolus phenotype percent effect (relative to siNT 0% and siNOL11 100%); higher = more cells with one nucleolus (ribosome biogenesis inhibition)
Protocol: as §1

Row | Sequence | percent viability [1] [%] | 5+ nucleoli phenotype percent effect [2] [%] | one-nucleolus phenotype percent effect [3] [%]
1 | GGUGGAUAUUCCUUCUAUGUU [hsa-miR-376c-5p] | 20.7 | -0.73 | 21.9
2 | GGUGGCCCGGCCGUGCCUGAGG [hsa-miR-663b] | 124 | 47.3 | -23.6
3 | GGUGGGAUGGAGAGAAGGUAUGAG [hsa-miR-4769-5p] | 77.6 | 33.7 | -13.3
4 | GGUGGGCUUCCCGGAGGG [hsa-miR-4417] | 77.8 | 35.5 | -24.2
5 | GGUGGGGCAAUGGGAUCAGGU [hsa-miR-3151] | 33.9 | 9.32 | -3.87
6 | GGUGGGGGCUGUUGUUU [hsa-miR-4447] | 24.5 | -20.8 | 38.7
7 | GGUGGGGGGUGUUGUUUU [hsa-miR-4472] | 40 | 11.6 | 9.55
8 | GGUGGUUGAGGCUGCAGUAAGU [hsa-miR-1273g-5p] | 49.2 | 22.4 | -13.4
9 | GGUUCCCUCUCCAAAUGUGUCU [hsa-miR-642b-5p] | 44.4 | 21.2 | 11.8
10 | GGUUCUUAGCAUAGGAGGUCU [hsa-miR-2116-5p] | 35.2 | -5.52 | 12.8
11 | GGUUGGGCAGUGAGGAGGGUGUGA [hsa-miR-3147] | 26 | 31 | -13.3
12 | GUAAGCAGGGGCUCUGGGUGA [hsa-miR-6792-5p] | 30.2 | -36.8 | 56.4
13 | GUAAGGGACCGGAGAGUAGGA [hsa-miR-6892-5p] | 22.3 | -29 | 20.5
14 | GUACCUUCUGGUUCAGCUAGU [hsa-miR-4724-3p] | 82.8 | 19.8 | -22.1
15 | GUAGAGGAGAUGGCGCAGGG [hsa-miR-877-5p] | 54.7 | 10.3 | -6.88
16 | GUAGAUUCUCCUUCUAUGAGUA [hsa-miR-376a-5p] | 24.5 | 11.8 | -7.97
17 | GUAGCACCUUGCAGGAUAAGGU [hsa-miR-5682] | 72.9 | 12.2 | -21.5
18 | GUAGGGGAGGUUGGGCCAGGGA [hsa-miR-6824-5p] | 78.1 | 39.2 | -25.3
19 | GUAGGGGCGUCCCGGGCGCGCGGG [hsa-miR-6789-5p] | 77.1 | 28.1 | -25.6
20 | GUAGGUGACAGUCAGGGGCGG [hsa-miR-6800-5p] | 33.9 | -0.87 | 1.11
21 | GUAUACACCUGAUAUGUGUAUG [hsa-miR-4789-5p] | 67.5 | 17.3 | -15.8
22 | GUCACUGAUGUCUGUAGCUGAG [hsa-miR-4420] | 87.4 | 1.76 | -18.2
23 | GUCAUACACGGCUCUCCUCUCU [hsa-miR-485-3p] | 54.4 | -1.94 | -9.37

Row | Sequence | percent viability [1] [%] | 5+ nucleoli phenotype percent effect [2] [%] | one-nucleolus phenotype percent effect [3] [%]
24 | GUCCACUUCUGCCUGCCCUGCC [hsa-miR-4436b-5p] | 51.1 | -0.992 | -10.1
25 | GUCCAGUUUUCCCAGGAAUCCCU [hsa-miR-145-5p] | 70.4 | -1.55 | -4.84
26 | GUCCCUCUCCAAAUGUGUCUUG [hsa-miR-642a-5p] | 120 | 55.6 | -27.9
27 | GUCCCUGAGUGUAUGUGGUG [hsa-miR-670] | 47.5 | 48 | -27.4
28 | GUCCGCUCGGCGGUGGCCCA [hsa-miR-572] | 96 | -5.13 | -16.2
29 | GUCCUAGGAGGCUCCUCUG [hsa-miR-5571-3p] | 66.3 | -30 | 6.57
30 | GUCCUCCAGGCCAUGAGCUGCGG [hsa-miR-4691-5p] | 89.2 | 47.9 | -11.3
31 | GUGAAAUGUUUAGGACCACUAG [hsa-miR-203a] | 40.9 | 3.03 | 10.2
32 | GUGAACGGGCGCCAUCCCGAGG [hsa-miR-887] | 73.2 | -3.19 | -1.47
33 | GUGAAGGCCCGGCGGAGA [hsa-miR-6126] | 77.8 | -28.6 | -11.8
34 | GUGAAUUACCGAAGGGCCAUAA [hsa-miR-183-3p] | 56.8 | -32 | 9.97
35 | GUGACAUCACAUAUACGGCAGC [hsa-miR-489] | 22.4 | -33.1 | 53.7
36 | GUGACUGAUACCUUGGAGGCAU [hsa-miR-4439] | 56.4 | -27.6 | -2.03
37 | GUGAGACUUCUCUCCCUUCAG [hsa-miR-6864-3p] | 41.4 | -9.96 | 14.5
38 | GUGAGCCAGUGGAAUGGAGAGG [hsa-miR-6807-5p] | 74.2 | 16.4 | -20.6
39 | GUGAGGACUCGGGAGGUGG [hsa-miR-1224-5p] | 53.3 | -12.6 | 16.9
40 | GUGAGGAGGGGCUGGCAGGGAC [hsa-miR-6858-5p] | 84.1 | 7.04 | -12.2
41 | GUGAGGCGGGGCCAGGAGGGUGUGU [hsa-miR-6765-5p] | 72.9 | 16 | -21.4
42 | GUGAGGGACUGGGAUUUGUGG [hsa-miR-6834-5p] | 81.4 | 23.5 | -28.7
43 | GUGAGGGCAUGCAGGCCUGGAUGGGG [hsa-miR-1226-5p] | 114 | 53.3 | -14.2
44 | GUGAGUAGUGGCGCGCGGCGGC [hsa-miR-6869-5p] | 32.4 | -16.7 | 12.6
45 | GUGAGUCAGGGUGGGGCUGG [hsa-miR-937-5p] | 41.5 | -10.1 | 19.2
